This is an account of results in patent US20190218304A1 (INNATE PHARMA, published 2019).

Test [1] concerns the target T1, CD39 mutant 5 (human, UniProt P49961 1-510).
T1 construct: Expressed on transfected Hek-293T cells; also called M5
T1 chain: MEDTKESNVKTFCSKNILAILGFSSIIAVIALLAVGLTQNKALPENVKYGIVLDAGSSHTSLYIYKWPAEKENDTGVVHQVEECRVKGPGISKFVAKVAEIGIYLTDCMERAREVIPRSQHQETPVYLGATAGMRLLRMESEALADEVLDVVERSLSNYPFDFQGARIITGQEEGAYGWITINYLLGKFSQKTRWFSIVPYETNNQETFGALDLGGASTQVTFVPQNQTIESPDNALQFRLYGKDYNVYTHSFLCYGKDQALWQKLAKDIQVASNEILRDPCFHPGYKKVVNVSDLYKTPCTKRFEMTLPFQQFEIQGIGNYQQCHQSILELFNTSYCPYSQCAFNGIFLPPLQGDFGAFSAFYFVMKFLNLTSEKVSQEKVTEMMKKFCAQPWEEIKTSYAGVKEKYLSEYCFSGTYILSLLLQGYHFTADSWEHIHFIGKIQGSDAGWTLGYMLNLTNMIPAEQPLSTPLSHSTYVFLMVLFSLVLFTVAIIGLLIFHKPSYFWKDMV
The test is described as follows: flow cytometry on Hek-293T cells transfected with CD39 mutant 5 [panel M5].

Test [2] deals with T2, CD39 mutant 15 (human, UniProt P49961 1-510).
T2 construct: Expressed on transfected Hek-293T cells; also called M15
T2 chain: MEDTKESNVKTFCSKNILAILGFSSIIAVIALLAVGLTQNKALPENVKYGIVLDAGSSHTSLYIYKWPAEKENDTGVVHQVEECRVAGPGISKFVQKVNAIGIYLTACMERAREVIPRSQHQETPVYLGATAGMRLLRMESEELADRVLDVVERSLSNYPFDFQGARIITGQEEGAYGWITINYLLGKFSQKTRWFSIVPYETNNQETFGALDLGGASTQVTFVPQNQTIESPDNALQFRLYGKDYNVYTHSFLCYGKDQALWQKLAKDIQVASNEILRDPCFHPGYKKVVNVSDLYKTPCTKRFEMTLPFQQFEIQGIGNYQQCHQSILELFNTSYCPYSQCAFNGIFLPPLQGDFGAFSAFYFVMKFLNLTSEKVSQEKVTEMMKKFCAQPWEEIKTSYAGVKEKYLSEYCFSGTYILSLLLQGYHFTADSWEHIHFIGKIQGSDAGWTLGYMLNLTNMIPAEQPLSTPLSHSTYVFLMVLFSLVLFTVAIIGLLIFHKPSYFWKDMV
Description: flow cytometry on Hek-293T cells transfected with CD39 mutant 15 [panel M15]. In general terms: A flow cytometer gives signals particle by particle.

Test [3] has as its target T3, CD39 mutant 19 (human, UniProt P49961 1-510).
T3 construct: Expressed on transfected Hek-293T cells; also called M19
T3 chain: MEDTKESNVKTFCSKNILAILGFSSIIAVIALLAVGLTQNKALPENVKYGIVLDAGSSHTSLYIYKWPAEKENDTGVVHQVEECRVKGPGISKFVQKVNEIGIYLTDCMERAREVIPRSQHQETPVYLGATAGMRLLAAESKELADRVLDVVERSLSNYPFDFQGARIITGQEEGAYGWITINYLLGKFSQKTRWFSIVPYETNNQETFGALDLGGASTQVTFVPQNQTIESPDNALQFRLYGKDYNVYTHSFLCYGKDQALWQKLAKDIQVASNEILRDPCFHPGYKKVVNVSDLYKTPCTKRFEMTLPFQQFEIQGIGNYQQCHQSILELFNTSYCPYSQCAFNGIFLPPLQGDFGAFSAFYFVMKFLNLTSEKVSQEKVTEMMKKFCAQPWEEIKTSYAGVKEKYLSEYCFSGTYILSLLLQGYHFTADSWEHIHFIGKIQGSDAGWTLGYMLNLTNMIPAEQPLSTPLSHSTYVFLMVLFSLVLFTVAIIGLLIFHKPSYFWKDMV
The test is described as follows: flow cytometry on Hek-293T cells transfected with CD39 mutant 19 [panel M19].

Test [4] concerns the target T4, human CD39 expressed on cells (human, UniProt P49961 1-510).
T4 construct: On CHO transfectants, HEK-293T transfectants (wild type), Ramos lymphoma cells or monocyte-derived dendritic cells, as named under assay; also called huCD39; CHO-huCD39
T4 sequence: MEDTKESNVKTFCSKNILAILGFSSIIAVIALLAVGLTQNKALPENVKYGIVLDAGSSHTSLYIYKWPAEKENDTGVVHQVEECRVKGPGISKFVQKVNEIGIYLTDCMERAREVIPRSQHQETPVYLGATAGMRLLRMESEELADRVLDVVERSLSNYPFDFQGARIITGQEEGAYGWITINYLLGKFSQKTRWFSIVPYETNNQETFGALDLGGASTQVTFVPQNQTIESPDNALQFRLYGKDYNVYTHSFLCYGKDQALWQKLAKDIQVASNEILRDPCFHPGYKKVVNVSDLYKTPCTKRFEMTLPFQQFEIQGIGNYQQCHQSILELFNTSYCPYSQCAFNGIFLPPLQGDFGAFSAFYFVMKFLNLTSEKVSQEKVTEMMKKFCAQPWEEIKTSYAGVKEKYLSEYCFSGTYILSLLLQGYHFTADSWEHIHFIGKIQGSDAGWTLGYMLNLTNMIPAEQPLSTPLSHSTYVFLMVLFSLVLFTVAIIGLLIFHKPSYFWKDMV
Description: flow cytometry on Hek-293T cells transfected with wild-type CD39 (unstained cells, US: 10,3) [panel WT].

In test [5] the target is T1, CD39 mutant 5. Description: flow cytometry on transfected Hek-293T cells. The procedure: (§1) Mutants were transfected in Hek-293T cells, as shown in the table 1, using numbering of SEQ ID NO: 1. Dose-ranges of test antibodies (10-2.5-0.625-0.1563-0.0391-0.0098-0.0024-0.0006 μg/ml) are tested on the 20 generated mutants by flow cytometry.
For a further test, the target named is T5, CD39 mutant 11 (human, UniProt P49961 1-510).
T5 construct: Expressed on transfected Hek-293T cells
T5 sequence: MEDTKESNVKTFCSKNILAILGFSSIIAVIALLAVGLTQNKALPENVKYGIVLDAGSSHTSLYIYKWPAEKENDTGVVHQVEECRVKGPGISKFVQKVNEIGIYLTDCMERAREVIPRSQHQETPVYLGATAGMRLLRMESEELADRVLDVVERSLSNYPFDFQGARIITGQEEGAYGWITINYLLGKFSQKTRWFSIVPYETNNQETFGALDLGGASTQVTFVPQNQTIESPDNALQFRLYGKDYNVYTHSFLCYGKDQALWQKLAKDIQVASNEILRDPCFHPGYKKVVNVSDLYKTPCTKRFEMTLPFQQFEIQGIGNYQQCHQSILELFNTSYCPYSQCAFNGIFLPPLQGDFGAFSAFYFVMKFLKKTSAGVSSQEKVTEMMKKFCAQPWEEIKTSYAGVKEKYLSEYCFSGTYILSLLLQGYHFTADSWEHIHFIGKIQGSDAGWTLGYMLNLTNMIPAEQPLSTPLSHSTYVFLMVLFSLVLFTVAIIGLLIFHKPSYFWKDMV
The test is described as follows: flow cytometry on transfected Hek-293T cells. As to the method:
as §1

Test [6] addresses T2, CD39 mutant 15. The test is described as follows: flow cytometry on transfected Hek-293T cells. The procedure:
as §1

Test [7] deals with T3, CD39 mutant 19. The test is described as follows: flow cytometry on transfected Hek-293T cells. The procedure:
as §1

B1: antibody I-396 (antibody, V domains shown)
VH: EVQLQQSGAELVKPGASVKLSCIVSGFNIKDTYINWVKQRPEQGLEWIGRIDPANGNTKYDPKFQGKATMTSDTSSNTAYLHLSSLTSDDSAVYYCARWGYDDEEADYFDSWGQGTTLTVSS
VL: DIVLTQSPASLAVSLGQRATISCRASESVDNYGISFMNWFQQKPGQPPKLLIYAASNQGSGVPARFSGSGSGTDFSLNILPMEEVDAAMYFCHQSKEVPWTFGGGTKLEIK
notes: Purified from hybridoma supernatant with protein A for screening
With B1, the binding result with CD39 mutant 5 [1] is “binds”; with CD39 mutant 15 [2], “no binding”; in the test with CD39 mutant 19 [3], “binds”. Moreover, the “Median : Comp-Alexa Fluor 647-A” value in test [4] is 4340.

B2: antibody I-395 (antibody, V domains shown)
VH: EVQLQQSGPELVKPGASVRMSCKASGYTFTDYNMHWVKKNHGKGLEWIGYINPNNGGTTYNQKFKGKATLTVNTSSKTAYMELRSLTSEDSAVYYCTRGGTRFASWGQGTLVTVSA
VL: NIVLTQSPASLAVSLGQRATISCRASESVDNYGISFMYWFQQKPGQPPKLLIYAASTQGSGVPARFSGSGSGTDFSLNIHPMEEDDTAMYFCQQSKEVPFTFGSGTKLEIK
notes: as for B1
For the molecule B2, the binding result with CD39 mutant 5 [1] and with CD39 mutant 19 [3] was “no binding” in each case. In addition, the “Median : Comp-Alexa Fluor 647-A” value in test [4] stood at 4240.

B3: antibody I-399 (antibody, V domains shown)
VH: PVQLQQPGAEVVMPGASVKLSCKASGYTFTSFWMNWMRQRPGQGLEWIGEIDPSDFYTNSNQRFKGKATLTVDKSSSTAYMQLSSLTSEDSAVYFCARGDFGWYFDVWGTGTSVTVSS
VL: EIVLTQSPTTMTSSPGEKITFTCSASSSINSNYLHWYQQKPGFSPKLLIYRTSNLASGVPTRFSGSGSGTSYSLTIGTMEAEDVATYYCQQGSSLPRTFGGGTKLEIK
notes: as for B1
Regarding B3, the binding result with CD39 mutant 5 [5] is recorded as “binds”; with CD39 mutant 11 it was “no binding (tested: 10 µg/ml (top of dose range))”; with CD39 mutant 15 [6] it was “binds”; with CD39 mutant 19 [7], “binds”.
